Assay results: patent US20250002581A1 (VERSITECH, published 2025)

Columns and labels:
[1] = biological target: T1, Δ42PD1 (human); test: flow cytometry on 293T-Δ42PD1 cells, antibody 10 ng/ml; average ± deviation
T1 construct: whole, on cells

[2] = biological target: T2, PD-1-GFP (UniProt Q15116 25-288); test: flow cytometry on RPMI8866 B cells transfected with PD-1-GFP
T2 construct: whole, on cells; Expressed from a PCDH plasmid in RPMI8866 B cells by electroporation; also called PD-1 expressed on human B cells; not shown: GFP
T2 sequence (Q15116 25-288): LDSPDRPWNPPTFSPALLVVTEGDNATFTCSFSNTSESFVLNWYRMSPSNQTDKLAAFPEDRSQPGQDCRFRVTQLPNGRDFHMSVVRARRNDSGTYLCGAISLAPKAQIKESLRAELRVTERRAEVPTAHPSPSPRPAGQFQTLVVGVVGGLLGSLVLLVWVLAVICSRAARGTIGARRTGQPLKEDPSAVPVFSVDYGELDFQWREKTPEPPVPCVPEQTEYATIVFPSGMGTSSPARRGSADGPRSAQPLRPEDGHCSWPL
Protocol: To test the specificity of anti-Δ42PD1 antibody CH34 as compared with the anti-PD1 antibody (EH12.2H7), RPMI8866 B cells are transfected with a plasmid PCDH expressing Δ42PD-1-GFP, PD-1-GFP or GFP along by Neon electroporation system. Untransfected RPMI8866 B cells are included as controls. Two days after the transfection, the transfection efficiency is determined by flow cytometry analysis on GFP (upper panel). The specificity of anti-Δ42PD1 antibody CH34 and anti-PD1 antibody EH12.2H7 is measured by analysis on PD-1 and Δ42PD1 expression (lower panel).

[3] = biological target: T3, PD1 (human, UniProt Q15116 25-288); test: flow cytometry on 293T cells transfected with a PCDH plasmid expressing PD-1
T3 construct: whole, on cells; also called CD279
T3 sequence (Q15116 25-288): as above
Protocol: Untransfected cells are included as controls. Two days after the transfection, the specificity of anti-Δ42PD1 antibody CH34 and anti-PD1 antibody EH12.2H7 is measured by analysis on PD-1 and Δ42PD1 expression.

[4] = biological target: T1, Δ42PD1; test: flow cytometry on 293T-Δ42PD1 cells, antibody 10 ng/ml, second anti-human Fc antibody
Excerpt: Human IgG1 isotype was used as a negative control.
To exploit the therapeutic activities of CH101 variants, we made various modifications in the constant regions of the chimeric version or humanized version of CH101, thus resulting a serial of CH101 humanized antibodies, including CH101-huIgG1(N297A), CH101-huIgG1(L/S), CH101-huIgG4, huCH101-IgG1, huCH101-IgG4, CH101-huIgG1 (chimeric CH101). The original CH101 (parental, fully murine) was included as the positive control for these humanized versions. […] All humanized antibodies could recognize Δ42PD1 expressed on the cell surface but with different specificity (FIGS. 3A-3I). The detailed statistical analysis elucidated the activity of versions of humanized antibodies in interacting with Δ42PD1 at different specificity and sensitivity (Table 1). […] Due to the limited expression of chimeric versions of CH101 with Fc engineering, including CH101-huIgG1(N297A), CH101-huIgG1(L/S) and CH101-huIgG4, the amount of these antibody was insufficient for fluorescence labelling.

293T-Δ42PD1 (%) [1] [%] | 293T-Δ42PD1 (%) [4] [%] | Binder | other results
45.5 |  | hufrCH101-IgG1 (antibody, 97.0% humanized CH101 (641/661) by CDR grafting, human IgG1; also called huCH101-IgG1; huCH101) heavy: not shown light: DVVMTQSPLSLPVTLGQPASISCTSSQSLLDRDGETFMNWFQQRPGQSPRRLIYLVSKLDFGVPDRFSGSGSGTDFTLKISRVEAEDVGVYYCWQGTHFPLTFGGGTKVEIKRTVAAPSVFIFPPSDEQLKSGTASVVCLLNNFYPREAKVQWKVDNALQSGNSQESVTEQDSKDSTYSLSSTLTLSKADYEKHKVYACEVTHQGLSSPVTKSFNRGEC | 
 |  | anti-Δ42PD1 antibody CH34 (antibody, mouse IgG2b, kappa, V domains shown, Murine monoclonal antibody (msIgG2b isotype control used beside it); both are entered as this one molecule; also called murine CH34; mouse CH34 mAb) VH: EVKLVESGGGLVQPGGSRKLSCAASGFTFSDYGMAWVRQAPGKGPEWVAFISSLAYTIYYADTVTGRFTISRENAKNTLYLEMSSLRSEDTAMYYCARGGAGFAYWGQGTLVTVSA VL: DIQMTQSSSYLSVSLGGRVTITCKASDHINNWLAWYQQKPGNAPRLLISGATSLETGVPSRFSGSGSGKDYTLSITSLQTEDVATYYCQQYWSTPWTFGGGTKLEIKR | binding result [2]: no binding; binding result [3]: no binding
 | 68.3 | CH101-huIgG1(N297A) (antibody, Detected with a second anti-human Fc antibody) heavy: not shown light: DVVMTQTPLNLSVTFGQPVSISCTSSQSLLDRDGETFMNWLFQRPGQSPKRLIYLVSKLDFGVPDRFTGSGSGTDFTLKISRVEAEDLGIYYCWQGTHFPLTFGGGTKLEIKRTVAAPSVFIFPPSDEQLKSGTASVVCLLNNFYPREAKVQWKVDNALQSGNSQESVTEQDSKDSTYSLSSTLTLSKADYEKHKVYACEVTHQGLSSPVTKSFNRGEC | 
70.1 |  | CH101-huIgG1 (antibody, also called chimeric CH101; CH101-IgG1) heavy: not shown light: DVVMTQTPLNLSVTFGQPVSISCTSSQSLLDRDGETFMNWLFQRPGQSPKRLIYLVSKLDFGVPDRFTGSGSGTDFTLKISRVEAEDLGIYYCWQGTHFPLTFGGGTKLEIKRTVAAPSVFIFPPSDEQLKSGTASVVCLLNNFYPREAKVQWKVDNALQSGNSQESVTEQDSKDSTYSLSSTLTLSKADYEKHKVYACEVTHQGLSSPVTKSFNRGEC | 
 | 62.8 | CH101-huIgG4 (antibody, Chimeric CH101 on human IgG4; Detected with a second anti-human Fc antibody; also called CH101-IgG4) heavy: not shown light: DVVMTQTPLNLSVTFGQPVSISCTSSQSLLDRDGETFMNWLFQRPGQSPKRLIYLVSKLDFGVPDRFTGSGSGTDFTLKISRVEAEDLGIYYCWQGTHFPLTFGGGTKLEIKRTVAAPSVFIFPPSDEQLKSGTASVVCLLNNFYPREAKVQWKVDNALQSGNSQESVTEQDSKDSTYSLSSTLTLSKADYEKHKVYACEVTHQGLSSPVTKSFNRGEC | 
 | 65.7 | CH101-huIgG1(L/S) (antibody, Detected with a second anti-human Fc antibody; not shown: human IgG1 constant region with a modification printed only as '(L/S)') heavy: EVQLEESGPDLVKPSQSLSLTCTVTGYSITSGFAWHWLRQFPGNRLEWMGYIHYSGSTNYNPSLKSRISITRDTSKNQFFLQLNSVTTEDTATFYCARSDFWGQGTFVTVSS light: DVVMTQTPLNLSVTFGQPVSISCTSSQSLLDRDGETFMNWLFQRPGQSPKRLIYLVSKLDFGVPDRFTGSGSGTDFTLKISRVEAEDLGIYYCWQGTHFPLTFGGGTKLEIKRTVAAPSVFIFPPSDEQLKSGTASVVCLLNNFYPREAKVQWKVDNALQSGNSQESVTEQDSKDSTYSLSSTLTLSKADYEKHKVYACEVTHQGLSSPVTKSFNRGEC | 
59.2 |  | murine CH101 (antibody, V domains shown, Hybridoma-derived, fully murine monoclonal antibody; a mouse IgG1 control was used beside it in vivo; also called parental murine CH101; original CH101 (parental, fully murine)) VH: EVQLEESGPDLVKPSQSLSLTCTVTGYSITSGFAWHWLRQFPGNRLEWMGYIHYSGSTNYNPSLKSRISITRDTSKNQFFLQLNSVTTEDTATFYCARSDFWGQGTFVTVSS VL: DVVMTQTPLNLSVTFGQPVSISCTSSQSLLDRDGETFMNWLFQRPGQSPKRLIYLVSKLDFGVPDRFTGSGSGTDFTLKISRVEAEDLGIYYCWQGTHFPLTFGGGTKLEIK | 
